Blank lines part the entries; values can stand above or below the compound they belong to. Non-standard residues stand in square brackets, D forms with d. Residues, ends and D or L forms follow the SMILES beside them. *: point of attachment. PhAc = O=C(Cc1ccccc1)*
Columns and labels:
[1] = biological target: T1, vasopressin (V1a) receptor (Homo sapiens, UniProt P37288); assay: ^125I-HOLVA binding to PC3 cells
T1 construct: endogenous in cells; host or cells: PC3 cells (ATCC)

5-LOX = biological target: T2, 5-LOX (Homo sapiens, UniProt P09917); settings: range of reported values, various blood cell systems; cited from earlier work
T2 sequence (P09917 1-674): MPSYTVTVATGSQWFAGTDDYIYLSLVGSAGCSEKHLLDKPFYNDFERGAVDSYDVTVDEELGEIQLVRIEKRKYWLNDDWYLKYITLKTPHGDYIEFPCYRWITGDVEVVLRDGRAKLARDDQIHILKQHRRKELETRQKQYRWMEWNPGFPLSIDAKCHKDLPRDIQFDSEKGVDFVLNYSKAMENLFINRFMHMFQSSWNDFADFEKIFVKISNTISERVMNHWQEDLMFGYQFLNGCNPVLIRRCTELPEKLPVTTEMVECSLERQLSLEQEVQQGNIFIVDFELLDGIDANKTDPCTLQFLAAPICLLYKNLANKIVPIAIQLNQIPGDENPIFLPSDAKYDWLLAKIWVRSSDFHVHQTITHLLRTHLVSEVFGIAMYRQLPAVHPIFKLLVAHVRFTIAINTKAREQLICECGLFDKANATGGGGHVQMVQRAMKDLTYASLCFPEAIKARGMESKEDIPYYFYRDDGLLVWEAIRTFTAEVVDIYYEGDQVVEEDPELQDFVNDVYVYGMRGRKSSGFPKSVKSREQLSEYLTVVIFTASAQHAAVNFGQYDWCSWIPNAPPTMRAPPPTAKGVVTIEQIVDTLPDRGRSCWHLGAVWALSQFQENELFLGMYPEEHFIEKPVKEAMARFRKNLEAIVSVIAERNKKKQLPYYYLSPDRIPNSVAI

PC3 cells = assay: Ionomycin-stimulated IP formation in PC3 cells; format: cell-based
NTR1 [2] = biological target: T3, NTR1 (Homo sapiens, UniProt P30989); assay: ^125I-NT binding to PC3 cells
bombesin receptor = biological target: T4, bombesin receptor (Homo sapiens, UniProt P30550); assay: ^125I-[Nle^14]-bombesin binding to PC3 cells; settings: 37° C.
T4 construct: endogenous in cells; host or cells: PC3 cells (ATCC)

NTR1 [3] = biological target: T3, NTR1; assay: ^125I-NT binding to isolated PC3 cell membranes; parameters: Ab-NTR1 detected two major bands in extracts of PC3 cells, the parent protein of 50 kDa; endogenous in cells; host or cells: PC3 cells (ATCC)
NTR1 [4] = biological target: T3, NTR1; assay: NT-induced IP formation in PC3 cells; format: cell-based; parameters: Ab-NTR1 detected two major bands in extracts of PC3 cells, the parent protein of 50 kDa; endogenous in cells; host or cells: PC3 cells (ATCC); settings: maximal % decrease in NT-induced IP formation
[5] = biological target: bombesin receptor of PC3 cells; assay: 125I-ligand binding to PC3 cells with 60 µM NIF
[6] = biological target: bombesin receptor of PC3 cells; assay: Scatchard analysis, PC3 cells
[7] = biological target: bombesin receptor of PC3 cells; assay: 125I-ligand binding to PC3 cells with 12 µM phloretin
[8] = biological target: bombesin receptor of PC3 cells; assay: 125I-ligand binding to PC3 cells with 12 µM NIF
[9] = biological target: bombesin receptor of PC3 cells; assay: 125I-ligand binding to PC3 cells with 60 µM verapamil
[10] = biological target: bombesin receptor of PC3 cells; assay: 125I-ligand binding to PC3 cells with 12 µM verapamil
[11] = biological target: bombesin receptor of PC3 cells; assay: 125I-ligand binding to PC3 cells with 60 µM phloretin
[12] = biological target: bombesin receptor of PC3 cells; assay: 125I-ligand binding to PC3 cells
[13] = biological target: bombesin receptor of PC3 cells
[14] = biological target: bombesin receptor of PC3 cells; assay: 125I-ligand binding to PC3 cells, 37 C, with 60 µM MK886
[15] = biological target: bombesin receptor of PC3 cells; assay: 125I-ligand binding to PC3 cells, 37 C, with 12 µM MK886
[16] = biological target: bombesin receptor of PC3 cells; assay: 125I-ligand binding to PC3 cells, 37 C, with 12 µM AA-861
[17] = biological target: bombesin receptor of PC3 cells; assay: 125I-ligand binding to PC3 cells, 37 C, with 60 µM NDGA
[18] = biological target: bombesin receptor of PC3 cells; assay: 125I-ligand binding to PC3 cells, 37 C, with 12 µM Rev-5901
[19] = biological target: bombesin receptor of PC3 cells; assay: 125I-ligand binding to PC3 cells, 37 C, with 60 µM AA-861
[20] = biological target: bombesin receptor of PC3 cells; assay: 125I-ligand binding to PC3 cells with 12 µM SKF-96365
[21] = biological target: bombesin receptor of PC3 cells; assay: 125I-ligand binding to PC3 cells, 37 C, with 12 µM NDGA
[22] = biological target: bombesin receptor of PC3 cells; assay: 125I-ligand binding to PC3 cells with 60 µM SKF-96365
[23] = biological target: bombesin receptor of PC3 cells; assay: 125I-ligand binding to PC3 cells, 37 C, with 60 µM Rev-5901
[24] = biological target: neurotensin receptor NTR1 of PC3 cells (human) (UniProt P30989); assay: UV crosslinking to PC3 cells with phloretin, immunoprecipitation with Ab-NTR1
[25] = biological target: neurotensin receptor NTR1 of PC3 cells (human) (UniProt P30989); assay: UV crosslinking to PC3 cells with 50 µM MK886, immunoprecipitation with antiserum to NTR1
[26] = biological target: neurotensin receptor NTR1 of PC3 cells (human) (UniProt P30989); assay: UV crosslinking to PC3 cells with verapamil, immunoprecipitation with Ab-NTR1
[27] = biological target: neurotensin receptor NTR1 of PC3 cells (human) (UniProt P30989); assay: UV crosslinking to PC3 cells with NIF, immunoprecipitation with Ab-NTR1
[28] = biological target: neurotensin receptor NTR1 of PC3 cells (human) (UniProt P30989); assay: UV crosslinking to PC3 cells with 50 µM NDGA, immunoprecipitation with antiserum to NTR1

T3 sequence (P30989 whole entry): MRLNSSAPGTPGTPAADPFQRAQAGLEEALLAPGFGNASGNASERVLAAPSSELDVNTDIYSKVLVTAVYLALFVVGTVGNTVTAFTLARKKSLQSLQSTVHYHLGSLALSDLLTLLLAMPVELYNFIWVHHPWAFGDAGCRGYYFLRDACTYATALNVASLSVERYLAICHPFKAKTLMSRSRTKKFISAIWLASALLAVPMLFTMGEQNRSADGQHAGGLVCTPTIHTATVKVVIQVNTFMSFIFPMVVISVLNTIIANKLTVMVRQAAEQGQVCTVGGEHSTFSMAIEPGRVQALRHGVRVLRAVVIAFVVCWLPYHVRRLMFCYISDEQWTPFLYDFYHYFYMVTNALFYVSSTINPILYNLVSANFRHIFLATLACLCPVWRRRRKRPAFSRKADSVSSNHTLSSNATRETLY
Sequence of neurotensin receptor NTR1 of PC3 cells (human) (P30989 whole entry): as above
Sequence of bombesin receptor of PC3 cells (P30550 whole entry): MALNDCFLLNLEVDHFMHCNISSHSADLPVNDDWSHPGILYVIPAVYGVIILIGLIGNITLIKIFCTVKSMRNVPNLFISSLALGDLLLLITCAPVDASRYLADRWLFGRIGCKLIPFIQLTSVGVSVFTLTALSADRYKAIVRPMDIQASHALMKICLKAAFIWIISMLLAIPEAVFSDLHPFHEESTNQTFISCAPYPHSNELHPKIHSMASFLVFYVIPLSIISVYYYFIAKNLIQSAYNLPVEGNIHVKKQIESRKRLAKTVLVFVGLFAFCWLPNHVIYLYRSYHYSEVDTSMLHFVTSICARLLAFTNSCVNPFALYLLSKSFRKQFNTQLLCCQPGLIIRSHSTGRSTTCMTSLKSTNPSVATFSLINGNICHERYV
T4 sequence (P30550 whole entry): as above
T1 sequence (P37288 whole entry): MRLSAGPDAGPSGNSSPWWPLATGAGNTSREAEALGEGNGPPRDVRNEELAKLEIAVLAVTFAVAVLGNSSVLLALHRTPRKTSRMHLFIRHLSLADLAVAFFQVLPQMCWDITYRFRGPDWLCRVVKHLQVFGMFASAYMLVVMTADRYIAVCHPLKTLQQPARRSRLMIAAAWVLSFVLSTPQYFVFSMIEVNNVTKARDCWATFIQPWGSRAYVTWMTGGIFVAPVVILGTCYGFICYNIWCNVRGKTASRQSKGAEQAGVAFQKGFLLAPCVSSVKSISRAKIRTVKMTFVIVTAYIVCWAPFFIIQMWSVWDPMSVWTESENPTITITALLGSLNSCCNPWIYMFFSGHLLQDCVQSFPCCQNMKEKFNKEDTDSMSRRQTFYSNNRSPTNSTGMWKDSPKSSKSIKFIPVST

Compound: CCOc1ccc(C[C@@H](NC(=O)Cc2ccccc2)C(=O)N[C@@H](Cc2ccccc2)C(=O)N[C@@H](CCC(N)=O)C(=O)N[C@@H](CC(N)=O)C(=O)N[C@@H](CCCCN)C(=O)N2CCC[C@H]2C(=O)N[C@@H](CCCNC(=N)N)C(N)=O)cc1 [^125I-HOLVA, des-Gly-[Phaa1, D-Tyr(Et)2, Lys6, Arg8]-vasopressin] (PhAc-[dY](Et)FQNKPR-NH2; N-terminus and C-terminus assumed)
Specific Binding (% of total) ([1]; 10^5 cpm ^125I-ligand): 77 % of total
Bmax ([1]; Scatchard analysis): 156 ± 12 fmol/mg

Compound: CCCCCC#CCC#CCC#CCC#CCCCC(=O)O [ETYA, 5,8,11,14-eicosatetraynoic acid]
IC50 (5-LOX): 6000 to 50000 nM

Compound: C[C@H](CCC(=O)O)C[C@H](C)C[C@H](C)C(=O)/C=C(\O)[C@H](C)C[C@H](C)C/C=C/[C@@H](C)[C@@H](O)[C@@H](C)[C@@H](O)C[C@@H]1CC[C@@](C)([C@H]2CC[C@@](C)([C@@H](C)O)O2)O1 [ionomycin]
IP formation (% control) (PC3 cells; 2 μM ionomycin): 139±6%
IP formation (% control) (PC3 cells; 10 μM ionomycin): 157±5 % control
IP formation (% control) (PC3 cells; 20 μM ionomycin): 324±14%
IP formation (% control) (PC3 cells; 25 μM ionomycin): 322±11 % control
share of the NT response reproduced (PC3 cells; IP formation): ~63%
reversal of NIF enhancement of NT binding (NTR1 [2]; 20 μM ionomycin): not reversed

Specific Binding (% control) of ^125I-[Nle14]-bombesin (bombesin receptor; 12 μM LOX blocker): 112 ± 4 % control
Specific Binding (% control) of ^125I-[Nle14]-bombesin (bombesin receptor; 60 μM LOX blocker): 135 ± 6 % control
Specific NT-Binding (% control) (NTR1 [3]; 10 μM LOX pathway blocker): 107 ± 4 % control
Specific NT-Binding (% control) (NTR1 [3]; 25 μM LOX pathway blocker): 109 ± 4 % control
Specific NT-Binding (% control) (NTR1 [3]; 75 μM LOX pathway blocker): 110 ± 5 % control
Compound: CC1=C(C)C(=O)C(CCCCC#CCCCC#CCO)=C(C)C1=O [AA861]
IC50 (5-LOX): 100 to 2000 nM

Compound: CCNC(=O)[C@H]1O[C@@H](n2cnc3c(N)nc(NCCc4ccc(CCC(=O)O)cc4)nc32)[C@H](O)[C@@H]1O [CGS21683]
IC50 (5-LOX): 10 to 1000 nM
NT Binding Efficacy % increase (NTR1 [2]; LOX blockers): 228 % increase

Compound: Clc1ccc(COC(Cn2ccnc2)c2ccc(Cl)cc2Cl)c(Cl)c1 (stereo not shown) [miconazole]
IP Formation Efficacy (% decrease) (NTR1 [4]): 54 % decrease
NT Binding Efficacy % increase (NTR1 [2]; maximal % increase in NT binding observed for each agent): 75 % increase

Specific Binding (% control) [5]: 119 % control
Bmax [6]: 1020 fmol/mg
Specific Binding (% control) [7]: 104 % control
Specific Binding (% control) [8]: 108 % control
Specific Binding (% control) [9]: 104 % control
Specific Binding (% control) [10]: 104 % control
Specific Binding (% control) [11]: 111 % control
Specific Binding (% of total) [12]: 95 % of total
Ki [13]: 0.6 nM
Specific Binding (% control) [14]: 125 % control
Specific Binding (% control) [15]: 106 % control
Specific Binding (% control) [16]: 112 % control
Specific Binding (% control) [17]: 127 % control
Specific Binding (% control) [18]: 107 % control
Specific Binding (% control) [19]: 135 % control
Specific Binding (% control) [20]: 99 % control
Specific Binding (% control) [21]: 110 % control
Specific Binding (% control) [22]: 106 % control
Specific Binding (% control) [23]: 119 % control
Compound: [Tyr^4, Nle^14]-bombesin (peptide)

fold increase in radioactivity associated with NTR1 [24]: 1.8 fold
fold increase in radioactivity associated with NTR1 [25]: 2.7 fold
fold increase in radioactivity associated with NTR1 [26]: 1.5 fold
fold increase in radioactivity associated with NTR1 [27]: 2.8 fold
fold increase in radioactivity associated with NTR1 [28]: 2.6 fold
Compound: ^125I-[4-azido-Phe^6]-NT (peptide)

Source: patent US20060062729A1, “Enhanced ligand binding to neurotensin receptors” (priority 2004, published 2006)
